Measurements: patent publication US20230303675A1

Key:
[1] = molecular target: human Ang2 (angiopoietin-2) (human) (UniProt O15123); test: BLI (Octet), scFv amine-coupled on AR2G biosensor, Ang2 in solution at 50, 40, 30, 20 nM
[2] = molecular target: mouse Ang2 (angiopoietin-2) (mouse) (UniProt O35608); test: BLI (Octet), scFv amine-coupled on AR2G biosensor, Ang2 in solution
Sequence of UniProt O35608 (O35608 19-496 limits assumed): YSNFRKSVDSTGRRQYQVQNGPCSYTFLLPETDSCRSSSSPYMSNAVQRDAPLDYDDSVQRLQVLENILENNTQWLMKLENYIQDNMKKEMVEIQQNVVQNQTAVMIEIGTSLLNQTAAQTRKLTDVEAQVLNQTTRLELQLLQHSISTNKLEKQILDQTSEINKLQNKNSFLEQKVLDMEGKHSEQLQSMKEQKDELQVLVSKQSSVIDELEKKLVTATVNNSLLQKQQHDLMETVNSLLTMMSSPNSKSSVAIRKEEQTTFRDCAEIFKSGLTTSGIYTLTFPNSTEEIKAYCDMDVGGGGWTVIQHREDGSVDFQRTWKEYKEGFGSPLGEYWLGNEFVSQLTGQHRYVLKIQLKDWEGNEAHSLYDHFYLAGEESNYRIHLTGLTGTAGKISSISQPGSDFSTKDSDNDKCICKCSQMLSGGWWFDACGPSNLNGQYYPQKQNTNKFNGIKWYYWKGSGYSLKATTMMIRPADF

Sequence of UniProt O15123 (O15123 19-496 limits assumed): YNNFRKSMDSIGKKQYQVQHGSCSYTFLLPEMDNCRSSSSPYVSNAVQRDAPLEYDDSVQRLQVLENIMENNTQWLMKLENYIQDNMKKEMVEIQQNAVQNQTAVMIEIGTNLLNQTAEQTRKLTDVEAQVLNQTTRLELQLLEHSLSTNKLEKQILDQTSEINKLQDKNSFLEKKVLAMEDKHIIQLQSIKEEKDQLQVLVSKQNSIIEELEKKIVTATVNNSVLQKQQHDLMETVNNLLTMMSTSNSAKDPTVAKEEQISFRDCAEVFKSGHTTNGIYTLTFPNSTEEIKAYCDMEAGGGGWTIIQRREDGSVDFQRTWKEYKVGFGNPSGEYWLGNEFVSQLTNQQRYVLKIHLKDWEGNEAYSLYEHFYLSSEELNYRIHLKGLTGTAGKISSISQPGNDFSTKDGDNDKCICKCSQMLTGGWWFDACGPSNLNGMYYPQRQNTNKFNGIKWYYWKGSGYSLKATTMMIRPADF

B1: anti-Ang2 antibody clone O4 ScFv with N76S substitution in the light-chain variable region (scFv, part only; not given: Linker, domain order and His tag, V domains shown, not shown: another chain or arm of the molecule; small tags and cut ends)
VH: QVQLVESGGGLVKPGGSLRLSCAASGFTFSSYSMNWVRQAPGKGLEWVSSISASDGATYYADSVRGRFTISRDNSRSTLYLQMNSLRAEDTAVYYCAKTLAGYSGPMGGMDVWGQGTTVTVSS
VL: DIQMTQSPSSLSASVGDRVTITCRASRDISNYLAWYQQKPGKAPKSLIYGASNLQSGVSSQFSGSGSGTDFTLTISSLQPEDSATYYCQQYYSYPLTFGGGTKVDIK
Kd [1]: 0.313 nM | koff [1]: 0.000172 s⁻¹ | kon [1]: 549000 M⁻¹ s⁻¹ | Kd [2]: 0.231 nM | koff [2]: 0.000169 s⁻¹ | kon [2]: 733000 M⁻¹ s⁻¹
